We go through 46 substances from patent US11260115B1, “Peptides and combination of peptides for use in immunotherapy against CLL and other cancers” (immatics biotechnologies GmbH, priority 2015, dated 2022).

This test has as its target HLA-A*02:01 (Homo sapiens, UniProt P04439, D140Y/D185E/D98H/E176V/E277Q/G131W/G231S/I119V/I121R/I166T/I218V/L300P/L318F/N151K/N90K/P208A/P217A/Q86G/Q94H/R138H/R169H/T345S). As to the kind of experiment: MHC binding assay (UV-ligand exchange, β2m ELISA, peptide exchange yield). The following applies: binding to HLA-A*02:01. An excerpt: Candidate peptides for T cell based therapies according to the present invention were further tested for their MHC binding capacity (affinity). The individual peptide-MHC complexes were produced by UV-ligand exchange, where a UV-sensitive peptide is cleaved upon UV-irradiation, and exchanged with the peptide of interest as analyzed. Only peptide candidates that can effectively bind and stabilize the peptide-receptive MHC molecules prevent dissociation of the MHC complexes. To determine the yield of the exchange reaction, an ELISA was performed based on the detection of the light chain (β2m) of stabilized MHC complexes. The assay was performed as generally described in Rodenko et al. (Rodenko et al., 2006).
96 well MAXISorp plates (NUNC) were coated over night with 2 ug/ml streptavidin in PBS at room temperature, washed 4× and blocked for 1 h at 37° C. in 2% BSA containing blocking buffer. Refolded HLA-A*02:01/MLA-001 monomers served as standards, covering the range of 15-500 ng/ml. Peptide-MHC monomers of the UV-exchange reaction were diluted 100 fold in blocking buffer. Samples were incubated for 1 h at 37° C., washed four times, incubated with 2 ug/ml HRP conjugated anti-β2m for 1 h at 37° C., washed again and detected with TMB solution that is stopped with […]. Absorption was measured at 450 nm. Candidate peptides that show a high exchange yield (preferably higher than 50%, most preferred higher than 75%) are generally preferred for a generation and production of antibodies or fragments thereof, and/or T cell receptors or fragments thereof, as they show sufficient avidity to the MHC molecules and prevent dissociation of the MHC complexes.
Table 11: MHC class I binding scores. Binding of HLA-class I restricted peptides to HLA-A*02:01 was ranged by peptide exchange yield: ≥10%=+; ≥20%=++; ≥50=+++; ≥75%=++++

With “308 (SLYDVSRMYV; listed as Homo sapiens) [compound 308]”, the “Peptide Exchange (MHC class I binding score, peptide exchange yield)” value (“Peptide Exchange” for short) is ““++++” (>75% = ++++)”.

As for “266 (TLLDQLDTQL; listed as Homo sapiens) [compound 266]”, the “Peptide Exchange” value is ““++” (>20% = ++)”.

Regarding “359 (FMQDPMEVFV; listed as Homo sapiens) [compound 359]”, the “Peptide Exchange” value is reported as ““+++” (>50 = +++)”.

Turning to “92 (ILEPLNPLL; listed as Homo sapiens) [compound 92]”, the “Peptide Exchange” value is given as ““+++” (>50 = +++)”.

For “312 (LLYNSTDPTL; listed as Homo sapiens) [compound 312]”, the “Peptide Exchange” value is listed as ““+++” (>50 = +++)”.

Consider “372 (SLFGPLPGPGPALV; listed as Homo sapiens) [compound 372]”, for which the “Peptide Exchange” value was ““+++” (>50 = +++)”.

Consider “227 (FLAEASVMTQL; listed as Homo sapiens) [compound 227]”, for which the “Peptide Exchange” value was ““+++” (>50 = +++)”.

Turning to “379 (YLAELVTPIL; listed as Homo sapiens) [compound 379]”, the “Peptide Exchange” value was ““+++” (>50 = +++)”.

Consider “229 (FLLNLQNCHL; listed as Homo sapiens) [compound 229]”, for which the “Peptide Exchange” value was ““++++” (>75% = ++++)”.

Take “237 (GLQENLDVVV; listed as Homo sapiens) [compound 237]”: the “Peptide Exchange” value was ““++++” (>75% = ++++)”.

As to “318 (NLQVTQPTV; listed as Homo sapiens) [compound 318]”, the “Peptide Exchange” value is ““+++” (>50 = +++)”.

On to “43 (FLLGPEALSFA; listed as Homo sapiens) [compound 43]”, for which the “Peptide Exchange” value is listed as ““++++” (>75% = ++++)”.

As for “148 (SIVASLITV; listed as Homo sapiens) [compound 148]”, the “Peptide Exchange” value was ““+++” (>50 = +++)”.

Regarding “152 (SLIRILQTI; listed as Homo sapiens) [compound 152]”, the “Peptide Exchange” value is recorded as ““+++” (>50 = +++)”.

In the case of “303 (ILSQPTPSL; listed as Homo sapiens) [compound 303]”, the “Peptide Exchange” value is recorded as ““+++” (>50 = +++)”.

For the substance “103 (KLGGTPAPA; listed as Homo sapiens) [compound 103]”, the “Peptide Exchange” value is ““++” (>20% = ++)”.

On to “234 (GLDDAEYAL; listed as Homo sapiens) [compound 234]”, for which the “Peptide Exchange” value is listed as ““++” (>20% = ++)”.

As to “328 (VLLPQETAEIHL; listed as Homo sapiens) [compound 328]”, the “Peptide Exchange” value is on record as ““++++” (>75% = ++++)”.

For “222 (ALWELSLKI; listed as Homo sapiens) [compound 222]”, the “Peptide Exchange” value is recorded as ““+++” (>50 = +++)”.

Turning to “253 (NLWSVDGEVTV; listed as Homo sapiens) [compound 253]”, the “Peptide Exchange” value is given as ““+++” (>50 = +++)”.

With “122 (LLIPVVPGV; listed as Homo sapiens) [compound 122]”, the “Peptide Exchange” value is given as ““+++” (>50 = +++)”.

Take “327 (VLIKWFPEV; listed as Homo sapiens) [compound 327]”: the “Peptide Exchange” value is ““++++” (>75% = ++++)”.

For the substance “185 (VMDDQRDLI; listed as Homo sapiens) [compound 185]”, the “Peptide Exchange” value is ““++” (>20% = ++)”.

For “218 (ALGEEWKGYVV; listed as Homo sapiens) [compound 218]”, the “Peptide Exchange” value is listed as ““++” (>20% = ++)”.

Regarding “342 (SLITPLQAV; listed as Homo sapiens) [compound 342]”, the “Peptide Exchange” value is on record as ““+++” (>50 = +++)”.

“67 (GLDDVTVEV; listed as Homo sapiens) [compound 67]”: the “Peptide Exchange” value was ““++” (>20% = ++)”.

For “297 (FLVEPQEDTRL; listed as Homo sapiens) [compound 297]”, the “Peptide Exchange” value was ““+++” (>50 = +++)”.

Consider “291 (ILLNEDDLVTI; listed as Homo sapiens) [compound 291]”, for which the “Peptide Exchange” value is listed as ““+++” (>50 = +++)”.

Regarding “30 (ELLEGSEIYL; listed as Homo sapiens) [compound 30]”, the “Peptide Exchange” value is on record as ““+++” (>50 = +++)”.

With “136 (NLDKLWTLV; listed as Homo sapiens) [compound 136]”, the “Peptide Exchange” value is recorded as ““++” (>20% = ++)”.

Turning to “362 (ILTELGGFEV; listed as Homo sapiens) [compound 362]”, the “Peptide Exchange” value is on record as ““+++” (>50 = +++)”.

In the case of “258 (RLDYITAEI; listed as Homo sapiens) [compound 258]”, the “Peptide Exchange” value was ““+++” (>50 = +++)”.

Consider “49 (FLTDLFAQL; listed as Homo sapiens) [compound 49]”, for which the “Peptide Exchange” value was ““++++” (>75% = ++++)”.

For the substance “53 (FLWQHVELVL; listed as Homo sapiens) [compound 53]”, the “Peptide Exchange” value was ““+++” (>50 = +++)”.

Consider “263 (SQWEDIHVV; listed as Homo sapiens) [compound 263]”, for which the “Peptide Exchange” value is given as ““+++” (>50 = +++)”.

In the case of “140 (QIAELPATSV; listed as Homo sapiens) [compound 140]”, the “Peptide Exchange” value is listed as ““+++” (>50 = +++)”.

In the case of “208 (ILLKTEGINL; listed as Homo sapiens) [compound 208]”, the “Peptide Exchange” value is recorded as ““+++” (>50 = +++)”.

“155 (SLMLEVPAL; listed as Homo sapiens) [compound 155]”: the “Peptide Exchange” value is ““+++” (>50 = +++)”.

With “348 (ALAKPPVVSV; listed as Homo sapiens) [compound 348]”, the “Peptide Exchange” value is reported as ““+++” (>50 = +++)”.

As to “249 (LLPTGVFQV; listed as Homo sapiens) [compound 249]”, the “Peptide Exchange” value is recorded as ““+++” (>50 = +++)”.

For “29 (AVLQAVTAV; listed as Homo sapiens) [compound 29]”, the “Peptide Exchange” value was ““+++” (>50 = +++)”.

With “367 (NLWSLVAKV; listed as Homo sapiens) [compound 367]”, the “Peptide Exchange” value was ““+++” (>50 = +++)”.

As to “276 (VLNDGAPNV; listed as Homo sapiens) [compound 276]”, the “Peptide Exchange” value was ““+++” (>50 = +++)”.

With “8 (ALAASALPALV; listed as Homo sapiens) [compound 8]”, the “Peptide Exchange” value is ““+++” (>50 = +++)”.

On to “292 (AAALIIHHV; listed as Homo sapiens) [compound 292]”, for which the “Peptide Exchange” value was ““+++” (>50 = +++)”.

With “64 (KLLESVASA; listed as Homo sapiens) [compound 64]”, the “Peptide Exchange” value is ““+++” (>50 = +++)”.
